T1: IL-26 (Homo sapiens, UniProt Q9NPH9)
T1 sequence (Q9NPH9 22-171): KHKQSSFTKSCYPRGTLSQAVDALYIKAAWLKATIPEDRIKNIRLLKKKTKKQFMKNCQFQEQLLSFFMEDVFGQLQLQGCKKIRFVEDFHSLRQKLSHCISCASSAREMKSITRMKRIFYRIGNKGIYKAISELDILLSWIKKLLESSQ

B1: IL-26: recombinant human IL-26 dimers for cell stimulation, R&D Systems (protein)
chain: T1 sequence (Q9NPH9 22-171)
B2: 69-10: mouse anti-human IL-26 monoclonal antibody, clone 69-10, from deposited hybridoma (antibody, V domains shown)
VH: QVTLKESGPGILKPSQTLSLTCSFSGFSLSTSGMGVGWIRQPSGKGLEWLAHIWWDDDKYYNPSLKSQLTISKDTSRNQVFLKITSVDTADTATYYCVRGGITATHYYAMDYWGQGTSVTVSS
VL: DIQMTQSPASQSASLGESVTISCLASQTIGTWLSWYQQKPGKSPQLLIYAATSLADGVPSRFSGSGSGTKFSFKISSLQAEDFVSYYCQQLYSSPWTFGGGTKLEIK

Key:
[1] = system: phosphorylation of AKT, JNK and EphA3 in HCC70 cells; assay: Western blotting of phosphorylation in HCC70 cells; assay type: cell-based, human; conditions: HCC70, IL-26 30 ng/ml or Ephrin A5 200 ng/ml, gefitinib 40 μM, FIG. 26
Experimental: To analyze the phosphorylation of AKT, ERK, p38, JNK, STAT3, and EphA3, E0771 cells and HCC70 cells in 100 mm dishes were stimulated with IL-26 ([…]) and an anti-EphA3 polyclonal antibody (pAb) (10 μg/ml) for a specified period of time. After stimulation, the cells were lysed with a 2% protease inhibitor mixture (Sigma-Aldrich) and/or RIPA buffer added with 1×PhosSTOP (Roche Diagnostics, Tokyo, Japan), and a lysate was separated in a reduced state by SDS-PAGE (15 μg/lane). Immunoblots were performed using an anti-phosphorylated AKT antibody, an anti-phosphorylated ERK antibody, an anti-phosphorylated p38 antibody, an anti-phosphorylated JNK antibody, an anti-phosphorylated STAT3 antibody, and an anti-phosphorylated EphA3 antibody that recognize both human and mouse antigens. For reprobing, the membrane was immersed in a stripping buffer. After the stripping procedure, the membranes were re-probed with anti-pan-AKT, anti-pan-ERK, anti-pan-p38, anti-pan-JNK, anti-pan-STAT3, and anti-pan-EphA3 antibodies recognizing both human and mouse antigens. Images were taken using a C-Digit Blot scanner (MS Techno Systems, Inc., Japan).

[2] = Heterogeneous chronic GVHD model (NOG mice transplanted with human umbilical cord blood mononuclear cells); assay type: in vivo, mouse; conditions: for lung histopathology (inflammatory cell infiltration, fibrogenesis, collagen): eight weeks after transplantation, H&E and Azan-Mallory staining, FIG. 60
Experimental: On day −1, NOG mice were irradiated with a sublethal dose (100 cGy). On day 0, 5×10^6 human umbilical cord blood mononuclear cells were transplanted from the tail vein of NOG mice. Survival of the mice was assessed daily and body weight was measured twice a week. In an antibody treatment experiment, the control human IgG or anti-human IL-26 monoclonal antibody (the mouse antibody m69-10 and the humanized antibody h69-10A) was administered from day +28 of transplantation when clinical signs/symptoms of mild GVHD began to appear. The antibody solution was adjusted to a concentration of 1 mg/mL with sterile PBS, and 200 μL (200 μg) of the antibody solution per mouse was intraperitoneally injected twice a week. On day +56 after transplantation, the mice were sacrificed, and the skin, lung, liver, and large intestine were collected.
NOG mice were dissected, and then the skin, lung, liver, and large intestine on the back were excised, fixed in 10% formalin solution (Wako) at room temperature, and embedded in paraffin. Thereafter, a section having a thickness of 5 μm was prepared and placed on a glass slide, and stained with hematoxylin and eosin (H&E). In addition, in order to confirm the proliferation of collagen fibers, Azan-Mallory staining was performed. Images of the optical microscope were taken with an Olympus BX41 microscope (OLYMPUS, Tokyo, Japan) connected with an Olympus digital camera DP25, and CellSens software was used.

IL-26 = biological target: T1, IL-26; assay: ELISA of antigen binding to human IL-26; design: purchased R&D Systems 1375-IL/CF; conditions: plates coated with 0.5 μg/ml human IL-26 monomer; calculated using GraphPadPrism
Experimental: The antigen binding of purified Ch69-10-IgG1, Hu69-10A-IgG1, and Hu69-10B-IgG1 was analyzed by ELISA. ELISA plates were coated overnight at 4° C. with the addition of 0.5 μg/ml human IL-26 (recombinant human IL-26/AK155 monomer, Cat #1375-IL/CF, R&D Systems, Minneapolis, MN) at 100 μl/well in 0.2 M sodium carbonate buffer (pH 9.4). Wells were washed with the wash buffer and blocked with the ELISA buffer. Subsequently, 100 μl/well of test antibody (mouse 69-10, Ch69-10-IgG1, Hu69-10A-IgG1, or Hu69-10B-IgG1) serially diluted 2-fold in RPMI medium starting at 5 μg/ml was added to measure a binding with IL-26. After incubation at room temperature for 1 hour and washing the plates with a wash buffer, a 1/2,000-diluted HRP-conjugated goat anti-human kappa chain polyclonal antibody (Bethyl Laboratories) (for Ch69-10-IgG1, Hu69-10A-IgG1 and Hu69-10B-IgG1) or a 1/2,000-diluted HRP-labeled goat anti-mouse kappa chain polyclonal antibody (Bethyl Laboratories) (for mouse 69-10) in ELISA buffer was added at 100 μl/well to detect bound antibodies. After incubation at room temperature for 30 min and washing with the wash buffer, 100 μl/well of ABTS substrate (Sigma Aldrich) was added to start color development and 100 μl/well of 2% oxalic acid was added to stop the color development. The absorbance was measured at 405 nm.

[3] = 200 μg per mouse i.p. twice a week from day 28, data not shown

Row | Molecule | dephosphorylation of EphA3, activation of AKT and JNK phosphorylation [1] | body weight loss [2, 3] | number of survival days [2, 3] | lung histopathology (inflammatory cell infiltration, fibrogenesis, collagen) [2] | lung histopathology (inflammatory cell infiltration, fibrogenesis, collagen) ([2]; listed as m69-10) | hair disorder (appearance) ([2]; eighth week of transplantation) | EC50 values (binding to human IL-26, ELISA) (IL-26) [µg/mL]
1 | B1 | dephosphorylation of EphA3, activation of AKT and JNK phosphorylation |  |  |  |  |  | 
2 | B2 |  | clearly reduced | significantly prolonged | clearly reduced | suppression of inflammatory cell infiltration, reduction of fibrogenesis, and reduction of collagen deposition were remarkably observed | slightly suppressed | 0.34
